Each block holds one binder with its values, some of them ahead of it.
Key:
Conditions in all cases: chains Vgamma:Vdelta
peptide on (human) [1] = test: IFNγ ELISA, CD4+ transduced T-cells against Daudi, pamidronate titration; full-length, on cells; parameters: unit not given here
peptide on (human) [2] = test: IFNγ ELISA, CD4+ transduced T-cells against Daudi, pamidronate titration; against γ9-G115wt/δ2-G115wt (max. 800 pg/ml); full-length, on cells
peptide on (human) [3] = test: IFNγ ELISA, CD4+ transduced T-cells against Daudi, pamidronate titration; against γ9-G115wt/δ2-G115wt (max. 800 pg/ml); the clone number is missing in the printed name; full-length, on cells

EC50 of pamidronate (peptide on (human) [1]): 30 | maximal IFNγ secretion (peptide on (human) [2]): 600 µg/mL
B1: γ9-cl3wt/δ2-cl3wt (protein)
chain 1: AGHLEQPQISSTKTLSKTARLECVVSGITISATSVYWYRERPGEVIQFLVSISYDGTVRKESGIPSGKFEVDRIPETSTSTLTIHNVEKQDIATYYCALWEEELGKKIKVFGPGTKLIIT
chain 2: AIELVPEHQTVPVSIGVPATLRCSMKGEAIGNYYINWYRKTQGNTMTFIYREKDIYGPGFKDNFQGDIDIAKNLAVLKILAPSERDEGSYYCACDLLGYTDKLIFGKGTRVTVEP

maximal IFNγ secretion (peptide on (human) [3]): 100 pg/mL
B2: γ9-cl3wt/δ2-G115wt (protein)
chain 1: B1 chain 1
chain 2: AIELVPEHQTVPVSIGVPATLRCSMKGEAIGNYYINWYRKTQGNTMTFIYREKDIYGPGFKDNFQGDIDIAKNLAVLKILAPSERDEGSYYCACDTLGMGGEYTDKLIFGKGTRVTVEP

— US20150050670A1
